Key:
U1A (Homo sapiens) = U1A (Homo sapiens) (UniProt P09012); experiment: pulldown; conditions: TALON beads, 4 C
L7Ae = L7Ae (UniProt O29494); conditions: RNA microarray, 5 nM L7Ae
Lin28A = target: T1, Lin28A (UniProt Q9H9Z2); experiment: pulldown; conditions: TALON beads, 4 C
T1 sequence: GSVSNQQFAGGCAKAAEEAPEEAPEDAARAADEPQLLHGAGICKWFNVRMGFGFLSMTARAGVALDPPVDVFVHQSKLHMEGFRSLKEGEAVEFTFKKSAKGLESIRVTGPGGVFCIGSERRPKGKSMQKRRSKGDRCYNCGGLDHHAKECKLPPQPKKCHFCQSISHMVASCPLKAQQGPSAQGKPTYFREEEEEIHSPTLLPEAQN

Chain of L7Ae (O29494 whole entry): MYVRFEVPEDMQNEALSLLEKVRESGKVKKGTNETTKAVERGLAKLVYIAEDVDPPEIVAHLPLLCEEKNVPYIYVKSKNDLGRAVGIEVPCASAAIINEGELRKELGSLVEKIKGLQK
Chain of U1A (Homo sapiens) (P09012 2-282): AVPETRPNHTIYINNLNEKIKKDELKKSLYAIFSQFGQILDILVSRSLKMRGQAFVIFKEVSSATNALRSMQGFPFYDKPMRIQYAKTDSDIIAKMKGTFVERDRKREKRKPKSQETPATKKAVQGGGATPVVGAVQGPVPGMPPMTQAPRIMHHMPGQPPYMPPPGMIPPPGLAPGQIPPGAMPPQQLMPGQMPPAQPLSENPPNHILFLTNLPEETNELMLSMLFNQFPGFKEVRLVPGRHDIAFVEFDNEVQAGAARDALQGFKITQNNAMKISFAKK

With hsa-mir-7848 loop the binding signal (Cy5 intensity) (U1A (Homo sapiens)) was 8.69.

For hsa-mir-1302-6 loop, the binding signal (Cy5 intensity) (U1A (Homo sapiens)) was 8.55.

For hsa-mir-493 loop, the binding signal (Cy5 intensity) (U1A (Homo sapiens)) was 8.41.

Work on hsa-mir-658 loop yielded a binding signal (Cy5 intensity) (U1A (Homo sapiens)) of 8.27.

hsa-mir-363 loop was tested, and the binding signal (log2 Cy3-Cy5+20) (L7Ae) was 12.5.

For hsa-mir-4479 loop, the binding signal (log2 Cy3-Cy5+20) (L7Ae) was 11.3.

With mmu-mir-6995 loop the binding signal (log2 Cy3-Cy5+20) (L7Ae) was 12.2.

hsa-mir-598 loop was tested, and the binding signal (Cy5 intensity) (Lin28A) was 6.47.

For hsa-mir-638 loop, the binding signal (Cy5 intensity) (Lin28A) was 6.27.

In the case of hsa-mir-1233-2 loop, the binding signal (Cy5 intensity) (Lin28A) is reported as 6.43.

With hsa-mir-6807 loop the binding signal (Cy5 intensity) (U1A (Homo sapiens)) was 8.28.

With hsa-mir-4723 loop the binding signal (Cy5 intensity) (U1A (Homo sapiens)) was 8.48.

In the case of hsa-mir-6796 loop, the binding signal (Cy5 intensity) (U1A (Homo sapiens)) is reported as 8.72.

With hsa-mir-6773 loop the binding signal (log2 Cy3-Cy5+20) (L7Ae) was 11.3.

In the case of hsa-mir-4499 loop, the binding signal (Cy5 intensity) (U1A (Homo sapiens)) is reported as 8.28.

In the case of hsa-mir-5196 loop, the binding signal (Cy5 intensity) (U1A (Homo sapiens)) is reported as 8.67.

For mmu-mir-466p loop, the binding signal (log2 Cy3-Cy5+20) (L7Ae) was 13.3.

hsa-mir-940 loop showed a binding signal (Cy5 intensity) (Lin28A) of 6.33.

For hsa-mir-4315-2 loop, the binding signal (Cy5 intensity) (U1A (Homo sapiens)) was 8.28.

Substance hsa-mir-34a loop has a binding signal (log2 Cy3-Cy5+20) (L7Ae) of 11.3.

With hsa-mir-4524b loop the binding signal (Cy5 intensity) (Lin28A) was 6.33.

With hsa-mir-6775 loop the binding signal (Cy5 intensity) (Lin28A) was 6.44.

Substance hsa-mir-1-2 loop has a binding signal (log2 Cy3-Cy5+20) (L7Ae) of 11.3.

mmu-mir-6338 loop showed a binding signal (log2 Cy3-Cy5+20) (L7Ae) of 11.6.

hsa-mir-637 loop gave a binding signal (Cy5 intensity) (U1A (Homo sapiens)) of 8.4.

hsa-mir-4730 loop showed a binding signal (Cy5 intensity) (Lin28A) of 6.28.

hsa-mir-2682 loop showed a binding signal (Cy5 intensity) (U1A (Homo sapiens)) of 8.27.

For mmu-mir-7220 loop, the binding signal (log2 Cy3-Cy5+20) (L7Ae) was 11.5.

hsa-mir-3661 loop showed a binding signal (Cy5 intensity) (U1A (Homo sapiens)) of 9.05.

With hsa-mir-6884 loop the binding signal (Cy5 intensity) (Lin28A) was 6.37.

For mmu-mir-7061 loop, the binding signal (log2 Cy3-Cy5+20) (L7Ae) was 11.8.

In the case of hsa-mir-6839 loop, the binding signal (Cy5 intensity) (Lin28A) is reported as 6.39.

For hsa-mir-1273h loop, the binding signal (Cy5 intensity) (U1A (Homo sapiens)) was 8.2.

Substance hsa-mir-6845 loop has a binding signal (Cy5 intensity) (U1A (Homo sapiens)) of 9.06.

hsa-mir-4453 loop showed a binding signal (Cy5 intensity) (Lin28A) of 6.54.

Substance hsa-mir-98 loop has a binding signal (Cy5 intensity) (Lin28A) of 6.41.

hsa-mir-6834 loop showed a binding signal (log2 Cy3-Cy5+20) (L7Ae) of 11.5.

hsa-mir-412 loop gave a binding signal (Cy5 intensity) (U1A (Homo sapiens)) of 8.95.

hsa-mir-5004 loop gave a binding signal (Cy5 intensity) (Lin28A) of 6.38.

For hsa-mir-4296 loop, the binding signal (Cy5 intensity) (Lin28A) was 6.29.

For hsa-mir-378c loop, the binding signal (Cy5 intensity) (U1A (Homo sapiens)) was 8.37.

With hsa-mir-204 loop the binding signal (log2 Cy3-Cy5+20) (L7Ae) was 11.7.

hsa-mir-6758 loop was tested, and the binding signal (Cy5 intensity) (Lin28A) was 6.35.

hsa-mir-422a loop was tested, and the binding signal (Cy5 intensity) (U1A (Homo sapiens)) was 8.78.

For hsa-mir-1233-1 loop, the binding signal (Cy5 intensity) (Lin28A) was 6.55.

For hsa-mir-16-2 loop, the binding signal (log2 Cy3-Cy5+20) (L7Ae) was 11.5.

Reference: patent publication US20170022545
